Laboratory results: patent publication US20240132624A1 (Ablynx, published 2024)
Where a chain is given by its changes, count along the chain named.

B1: T0263018B11 S52aP (VHH, name in Kabat numbering)
VHH: EVQLVESGGGVVQPGGSLRLSCAASGFTFSSYAMYWVRQAPGKGLEWVSAISPGGGSTDYADSVKGRFTISRDNSKNTLYLQMNSLRPEDTALYYCAADTLYTSLTWYSYWGQGTLVTVSS
notes: FLAG3-His6 tagged
B2: T0263018B11 S52aR (VHH, name in Kabat numbering)
VHH: B1 VHH with P53R
notes: FLAG3-His6 tagged
B3: T0263018B11 S101M (VHH, name in Kabat numbering)
VHH: B1 VHH with P53S, S109M
notes: FLAG3-His6 tagged
B4: T0263018B11 S56H (VHH, name in Kabat numbering)
VHH: B1 VHH with P53S, S57H
notes: FLAG3-His6 tagged
B5: T0263018B11 S101A (VHH, name in Kabat numbering)
VHH: B1 VHH with P53S, S109A
notes: FLAG3-His6 tagged
B6: T0263018B11 S56A (VHH, name in Kabat numbering)
VHH: B1 VHH with P53S, S57A
notes: FLAG3-His6 tagged
B7: T0263018B11 S52aV (VHH, name in Kabat numbering)
VHH: B1 VHH with P53V
notes: FLAG3-His6 tagged
B8: T0263018B11 S52aW (VHH, name in Kabat numbering)
VHH: B1 VHH with P53W
notes: FLAG3-His6 tagged
B9: T0263018B11 S56T (VHH, name in Kabat numbering)
VHH: B1 VHH with P53S, S57T
notes: FLAG3-His6 tagged
B10: T0263018B11 S56V (VHH, name in Kabat numbering)
VHH: B1 VHH with P53S, S57V
notes: FLAG3-His6 tagged
B11: T0263018B11 S52aY (VHH, name in Kabat numbering)
VHH: B1 VHH with P53Y
notes: FLAG3-His6 tagged
B12: T0263018B11 S101E (VHH, name in Kabat numbering)
VHH: B1 VHH with P53S, S109E
notes: FLAG3-His6 tagged
B13: T0263018B11 S56L (VHH, name in Kabat numbering)
VHH: B1 VHH with P53S, S57L
notes: FLAG3-His6 tagged
B14: T0263018B11 S56K (VHH, name in Kabat numbering)
VHH: B1 VHH with P53S, S57K
notes: FLAG3-His6 tagged
B15: T0263018B11 S101V (VHH, name in Kabat numbering)
VHH: B1 VHH with P53S, S109V
notes: FLAG3-His6 tagged
B16: T0263018B11 S52aT (VHH, name in Kabat numbering)
VHH: B1 VHH with P53T
notes: FLAG3-His6 tagged
B17: T0263018B11 S101T (VHH, name in Kabat numbering)
VHH: B1 VHH with P53S, S109T
notes: FLAG3-His6 tagged
B18: T0263018B11 S100Q (VHH, name in Kabat numbering)
VHH: B1 VHH with P53S, S104Q
notes: FLAG3-His6 tagged
B19: T0263018B11 S100M (VHH, name in Kabat numbering)
VHH: B1 VHH with P53S, S104M
notes: FLAG3-His6 tagged
B20: T0263018B11 S101W (VHH, name in Kabat numbering)
VHH: B1 VHH with P53S, S109W
notes: FLAG3-His6 tagged
B21: T0263018B11 T28I (VHH, name in Kabat numbering)
VHH: B1 VHH with T28I, P53S
notes: FLAG3-His6 tagged
B22: T0263018B11 S101Q (VHH, name in Kabat numbering)
VHH: B1 VHH with P53S, S109Q
notes: FLAG3-His6 tagged
B23: T0263018B11 S100K (VHH, name in Kabat numbering)
VHH: B1 VHH with P53S, S104K
notes: FLAG3-His6 tagged
B24: T0263018B11 S56Q (VHH, name in Kabat numbering)
VHH: B1 VHH with P53S, S57Q
notes: FLAG3-His6 tagged

Each binder was assayed against T1, cyno FcRn/b2M (cyno, UniProt Q8SPV9 24-297; Q8SPW0 21-119, biotinylated) (assay: SPR off-rate; pH 7.4 vs pH 6.0;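 also: surface plasmon resonance with diluted periplasmic extracts flowed over ligand surfaces, 120 s association and 600–3600 s dissociation at 25 °C, running buffer containing 150 mM NaCl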).
T1 construct: bought recombinant biotinylated protein (Immunitrack ITF05 or ACRO FCM-C82W5); also called cFcRn; cFcRn/cb2M
T1 sequence (Q8SPV9 24-297 limits assumed, chain 1 of 2): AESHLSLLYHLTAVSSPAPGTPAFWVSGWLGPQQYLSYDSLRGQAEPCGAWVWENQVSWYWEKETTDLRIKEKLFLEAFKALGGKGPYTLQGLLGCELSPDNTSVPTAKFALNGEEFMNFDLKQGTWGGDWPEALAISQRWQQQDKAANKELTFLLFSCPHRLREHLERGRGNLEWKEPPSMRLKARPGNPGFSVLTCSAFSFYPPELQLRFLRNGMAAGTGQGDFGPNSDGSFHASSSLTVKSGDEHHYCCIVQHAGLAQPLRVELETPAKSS
T1 sequence (Q8SPW0 21-119 limits assumed, chain 2 of 2): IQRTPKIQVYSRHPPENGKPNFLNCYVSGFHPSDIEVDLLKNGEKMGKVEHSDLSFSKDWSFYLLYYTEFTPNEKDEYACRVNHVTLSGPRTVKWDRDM
Procedure: (§1) All kinetic measurements have been performed on ProteOn XPR36 (BioRad Laboratories, Inc.), MASS-2 (Sierra sensors, Gmbh) or SPR-32 (Bruker Corporation). […] The phytip purified periplasmic extracts were diluted 1:10 in running buffer (CPA+150 mM NaCl+0.005% Tw20 at pH 5.5, pH 6.0 or pH 7.4) and injected over the ligand surfaces (association: 120 s at 45 μL/min; dissociation: 600s-3600 s at 45 μL/min). Experiments were carried out at 25° C.

kd ratio pH 7.4/6.0 | Binder
71 | B1
61 | B2
54 | B3
36 | B4
45 | B5
45 | B6
45 | B7
54 | B8
47 | B9
37 | B10
44 | B11
36 | B12
28 | B13
25 | B14
45 | B15
49 | B16
54 | B17
69 | B18
68 | B19
9 | B20
75 | B21
43 | B22
69 | B23
38 | B24

These binders were tested against T2, human FcRn/b2M (human, UniProt P61769 21-119, biotinylated) (assay: SPR off-rate; pH 7.4 vs pH 6.0;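 also: surface plasmon resonance with diluted periplasmic extracts flowed over ligand surfaces, 120 s association and 600–3600 s dissociation at 25 °C, running buffer containing 150 mM NaCl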).
T2 construct: bought recombinant biotinylated protein (ACRO FCM-H82W4 or Immunitrack ITF01); also called hFcRn; hFcRn/hb2M
Procedure: as §1

kd ratio pH 7.4/6.0 | Binder
53 | B1
56 | B2
44 | B3
35 | B4
36 | B5
39 | B6
30 | B7
41 | B8
42 | B9
34 | B10
42 | B11
44 | B12
26 | B13
25 | B14
43 | B15
39 | B16
44 | B17
68 | B18
57 | B19
17 | B20
46 | B21
45 | B22
54 | B23
30 | B24

The binders below were run against T1, cyno FcRn/b2M (assay: SPR pH 6.0;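 also: surface plasmon resonance kinetics at 25 °C, diluted periplasmic extracts injected over immobilized ligand surfaces, 120 s association then 600–3600 s dissociation, running buffer containing 150 mM NaCl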).
Procedure: as §1

koff [s⁻¹] | Binder
0.0003 | B1
0.0015 | B2
0.00068 | B3
0.0013 | B4
0.0013 | B5
0.001 | B6
0.0021 | B7
0.0008 | B8
0.001 | B9
0.001 | B10
0.00052 | B11
9.4e-05 | B12
0.00045 | B13
0.0018 | B14
0.00058 | B15
0.0012 | B16
0.00036 | B17
0.00084 | B18
0.00024 | B19
9.7e-05 | B20
0.00044 | B21
0.00038 | B22
0.0012 | B23
0.0018 | B24

Each binder was assayed against T2, human FcRn/b2M (assay: SPR pH 6.0;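 also: surface plasmon resonance kinetics at 25 °C, diluted periplasmic extracts injected over immobilized ligand surfaces, 120 s association then 600–3600 s dissociation, running buffer containing 150 mM NaCl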).
Procedure: as §1

koff [s⁻¹] | Binder
0.00054 | B1
0.0023 | B2
0.0011 | B3
0.0016 | B4
0.0017 | B5
0.0013 | B6
0.0027 | B7
0.0015 | B8
0.0013 | B9
0.0013 | B10
0.00083 | B11
0.00018 | B12
0.00075 | B13
0.0021 | B14
0.00073 | B15
0.0016 | B16
0.00057 | B17
0.0019 | B18
0.00056 | B19
7e-05 | B20
0.0011 | B21
0.00055 | B22
0.0032 | B23
0.0022 | B24

These binders were tested against T1, cyno FcRn/b2M (assay: SPR pH 7.4;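 also: surface plasmon resonance kinetics, periplasmic extracts diluted 1:10 flowed over immobilized target at 25 °C, 120 s association then 600–3600 s dissociation, buffer with 150 mM NaCl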).
Procedure: as §1

koff [s⁻¹] | Binder
0.021 | B1
0.091 | B2
0.037 | B3
0.046 | B4
0.058 | B5
0.045 | B6
0.095 | B7
0.043 | B8
0.047 | B9
0.038 | B10
0.023 | B11
0.0034 | B12
0.013 | B13
0.044 | B14
0.026 | B15
0.059 | B16
0.019 | B17
0.058 | B18
0.016 | B19
0.00086 | B20
0.033 | B21
0.016 | B22
0.083 | B23
0.068 | B24

What follows are binders tested against T2, human FcRn/b2M (assay: SPR pH 7.4;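 also: surface plasmon resonance kinetics, periplasmic extracts diluted 1:10 flowed over immobilized target at 25 °C, 120 s association then 600–3600 s dissociation, buffer with 150 mM NaCl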).
Procedure: as §1

koff [s⁻¹] | Binder
0.029 | B1
0.13 | B2
0.048 | B3
0.055 | B4
0.062 | B5
0.051 | B6
0.081 | B7
0.062 | B8
0.055 | B9
0.044 | B10
0.035 | B11
0.0078 | B12
0.02 | B13
0.053 | B14
0.032 | B15
0.062 | B16
0.025 | B17
0.13 | B18
0.032 | B19
0.0012 | B20
0.049 | B21
0.025 | B22
0.18 | B23
0.067 | B24
